Values quoted from earlier work as cited in US20240285756A1, “METHOD AND COMPOSITION FOR INDUCING TOLERANCE” (ZELARION MALTA LIMITED, priority 2021, published 2024).

Biological target: T1, CD2 (Homo sapiens, UniProt P06729)
T1 sequence (P06729 25-351): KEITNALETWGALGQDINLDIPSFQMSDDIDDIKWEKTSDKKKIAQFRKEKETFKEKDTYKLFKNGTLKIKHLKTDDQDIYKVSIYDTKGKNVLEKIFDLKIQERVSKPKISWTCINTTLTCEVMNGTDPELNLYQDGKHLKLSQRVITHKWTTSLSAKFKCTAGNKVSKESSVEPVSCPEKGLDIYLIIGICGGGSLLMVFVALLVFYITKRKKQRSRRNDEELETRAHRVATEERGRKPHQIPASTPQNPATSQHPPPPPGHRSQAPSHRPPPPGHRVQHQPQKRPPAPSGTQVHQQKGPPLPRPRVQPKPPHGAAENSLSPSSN
Conditions: literature value, Branco et al., Transplantation 1999; assay not further specified

B1: siplizumab: humanized IgG1 kappa monoclonal antibody against human CD2; humanized version of rat antibody BTI-322 (antibody, V domains shown)
VH: QVQLVQSGAEVQRPGASVKVSCKASGYIFTEYYMYWVRQAPGQGLELVGRIDPEDGSIDYVEKFKKKVTLTADTSSSTAYMELSSLTSDDTAVYYCARGKFNYRFAYWGQGTLVTVSS
VL: DVVMTQSPPSLLVTLGQPASISCRSSQSLLHSSGNTYLNWLLQRPGQSPQPLIYLVSKLESGVPDRFSGSGSGTDFTLKISGVEAEDVGVYYCMQFTHYPYTFGQGTKLEIK
- IC50: ~1 nM
